In experiment [1] the target is dynamic microtubules grown from purified bovine brain tubulin (bovine) (UniProt Q6B856). In words: optical trap rupture force assay.
The target is the same in experiment [2]. The experiment is described as follows: optical trap force clamp assay.

The substance “wild-type Ndc80 complex (from UniProt P40460 1-691; P33895 1-451; Q04477 1-213; P40014 1-221)” displayed a median rupture strength in experiment [1] of 3.2 pN. In experiment [2], this substance had a percent of beads tracking with shortening microtubule tips under 1.5 pN of 7%.

The values are drawn from article PMC8972186.
